# Measurements taken from paper PMC3161976.
# How the values were obtained:
# [1] = target: GST-Tnp3 (Transportin 3), full length (human) (UniProt Q9Y5L0); experiment: pull-down; GST-Tnp3, GST-Tnp3 DC825 or GST-Xpo-t held on glutathione-Sepharose 4B beads, with purified HIV-1 vector disrupted by gentle sonication (50 µl), with or without RanQ69L-GTP; binding buffer 50 mM Hepes pH 7.3, 200 mM NaCl, 2 mM Mg(Ac)2, 10 µM GTP; 4°C; silver stain and Western blot with anti-capsid antibody, ImageJ quantification
# [2] = target: GST-Tnp3 DC825 deletion mutant (human) (UniProt Q9Y5L0); experiment: as above
# Sequence of GST-Tnp3 DC825 deletion mutant (human) (Q9Y5L0 1-825, stated change not applied): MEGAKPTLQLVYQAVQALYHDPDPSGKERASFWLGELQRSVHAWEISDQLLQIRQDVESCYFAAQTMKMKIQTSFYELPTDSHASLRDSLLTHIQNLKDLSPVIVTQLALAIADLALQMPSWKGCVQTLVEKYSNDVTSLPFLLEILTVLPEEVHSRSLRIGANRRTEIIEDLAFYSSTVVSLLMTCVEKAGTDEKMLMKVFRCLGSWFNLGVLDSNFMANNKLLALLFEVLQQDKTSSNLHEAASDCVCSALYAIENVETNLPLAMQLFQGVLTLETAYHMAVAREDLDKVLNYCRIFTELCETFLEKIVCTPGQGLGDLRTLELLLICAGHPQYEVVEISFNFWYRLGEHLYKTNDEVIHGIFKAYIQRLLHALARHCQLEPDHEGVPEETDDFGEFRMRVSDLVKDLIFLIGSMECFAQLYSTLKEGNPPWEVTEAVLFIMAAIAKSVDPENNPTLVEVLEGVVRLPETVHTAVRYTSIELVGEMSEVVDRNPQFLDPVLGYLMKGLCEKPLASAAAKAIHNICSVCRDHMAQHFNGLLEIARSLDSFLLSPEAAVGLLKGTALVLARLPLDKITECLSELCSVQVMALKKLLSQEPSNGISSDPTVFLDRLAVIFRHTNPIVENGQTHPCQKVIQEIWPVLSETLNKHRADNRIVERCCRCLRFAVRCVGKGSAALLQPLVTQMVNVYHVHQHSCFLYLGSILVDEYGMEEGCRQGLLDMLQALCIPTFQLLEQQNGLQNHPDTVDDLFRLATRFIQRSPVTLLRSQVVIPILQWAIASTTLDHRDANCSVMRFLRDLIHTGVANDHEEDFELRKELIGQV
# Sequence of GST-Tnp3 (Transportin 3), full length (human) (Q9Y5L0 whole entry): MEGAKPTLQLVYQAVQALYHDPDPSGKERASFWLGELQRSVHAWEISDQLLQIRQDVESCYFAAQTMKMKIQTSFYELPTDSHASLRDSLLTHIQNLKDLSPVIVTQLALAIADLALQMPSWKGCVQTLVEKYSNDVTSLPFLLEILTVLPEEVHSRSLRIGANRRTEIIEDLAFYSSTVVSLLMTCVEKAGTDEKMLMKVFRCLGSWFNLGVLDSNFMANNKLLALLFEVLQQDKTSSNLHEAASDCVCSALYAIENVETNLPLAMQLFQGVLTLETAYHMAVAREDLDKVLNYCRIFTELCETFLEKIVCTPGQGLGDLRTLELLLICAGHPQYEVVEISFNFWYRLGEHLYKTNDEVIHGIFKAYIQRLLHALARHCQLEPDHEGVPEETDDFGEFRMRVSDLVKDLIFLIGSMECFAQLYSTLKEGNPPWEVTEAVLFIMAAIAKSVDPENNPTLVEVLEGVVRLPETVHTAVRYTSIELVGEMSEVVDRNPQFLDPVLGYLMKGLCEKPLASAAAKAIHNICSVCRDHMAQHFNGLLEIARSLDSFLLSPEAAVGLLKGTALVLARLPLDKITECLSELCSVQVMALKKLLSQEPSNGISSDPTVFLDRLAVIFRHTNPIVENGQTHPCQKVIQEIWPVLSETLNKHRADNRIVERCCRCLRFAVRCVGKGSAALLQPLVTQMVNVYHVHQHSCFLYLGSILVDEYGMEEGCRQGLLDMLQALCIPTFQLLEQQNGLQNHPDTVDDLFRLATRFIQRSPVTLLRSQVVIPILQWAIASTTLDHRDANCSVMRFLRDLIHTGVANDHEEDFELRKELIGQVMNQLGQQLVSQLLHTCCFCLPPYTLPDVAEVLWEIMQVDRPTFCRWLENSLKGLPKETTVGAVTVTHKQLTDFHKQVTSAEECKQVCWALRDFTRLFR
substance,measurement,setting,value
"HIV-1 capsid protein (CA, p24) of purified HIV-1 vector particles (natural protein)",fold increase of binding with RanGTP against without,[1],2.5 fold
same,fold reduction of binding against full-length Tnp3,[2],3 fold
